What was measured:
mLeptin promoter = assay: NHR-promoter luciferase screen, mLeptin promoter; assay type: cell-based, mouse; conditions: for Luc. act., normalized to lacZ / Normalized Luc. act., normalized to control: Table 7, mLeptin; for Results of assays of transcription factor (+/- ligand) with mLeptin: Table 6d, luciferase activity relative to control (control = 1.00)
Description: (§1) The use, feasibility, and reproducibility of the functional NHR-promoter screen in a 48-well format have been tested validated. Briefly, there were co-expressed 50 ng of each NHR/NHR homodimer or NHR/RXR heterodimer with 100 ng promoter/luciferase construct and 50 ng of LacZ (as a control for transfection efficiency) in CV-1 cells using Fugene HD (Roche) as a transfection reagent (alternatively or additionally, a CMV-YFP construct can be used as a transfection control). Each of the nuclear hormone receptors that were used in these experiments was cloned into a pcDNA3.1 vector and comprised a C-terminally linked V5H6 tag. Twenty-four hours after transfection, appropriate ligands were added, where applicable, (see Table 5 for various ligands and concentrations and after 48 hrs, samples were assayed for luciferase and LacZ activity. To measure for luciferase activity 15 ul of sample was added to 30 ul of luciferase buffer (20 mM tricine, 1.07 mM MgCarbonate, 2.67 mM MgSulfate, 0.1 mM Naz-EDTA, 5 mM DTT, 5 mM ATP, 0.15 mg/ml CoA, 0.5 mM Luciferin), mixed briefly, and run in a Perkin Elmer Victor 5 luminometer. Thus, the functional NHR-promoter screen was used to observe the transcriptional activity of 29 promoters from various physiological pathways including inflammation, lipid and sugar metabolism, cholesterol transport, xenobiotic metabolism, and circadian rhythm.
(§2) The promoters that facilitate transcription of the indicated gene products that were tested using the protocols described herein are listed in the first row of the table. The nuclear hormone receptors and, where applicable, ligands that were assayed for their transcriptional effects on the promoters are listed in the first column of the table. The data represent the luciferase activity of each sample normalized to both the lacZ activity of that sample and to a control, e.g., no NHR or ligand, as customary in the art. As described previously, these normalizations allow the transcriptional activity of each reporter cell to be compared to other samples.
(§3) Tables 7-40 show the transcriptional effects of the hormone receptors, and, where applicable, ligands (orphan receptors are screened without ligand), on each individual promoter. […] The control data of each table are shown in their last rows.

mAdiponectin promoter = assay: NHR-promoter luciferase screen, mAdiponectin promoter; assay type: cell-based, mouse; conditions: for Luc. act., normalized to lacZ / Normalized Luc. act., normalized to control: Adiponectin, HR component without or with its ligand; for mAdiponectin promoter reporter activity: transcription factor +/- ligand, control = 1.00
Description: as §1, §2, §3

mUCP3 promoter = assay: NHR-promoter luciferase screen, mUCP3 promoter; assay type: cell-based, mouse; conditions: for Normalized Luc. act., normalized to control / Luc. act., normalized to lacZ: mUCP3 promoter reporter; for Normalized Luc. act., normalized to control: HR without or with its ligand, relative to control; for Luc. act., normalized to lacZ: hormone receptor (HR) without or with its ligand; for mUCP3 promoter reporter activity: transcription factor +/- ligand, control = 1.00
Description: as §1, §2, §3

mABCA1 promoter = assay: NHR-promoter luciferase screen, mABCA1 promoter; assay type: cell-based, mouse; conditions: for Luc. act., normalized to lacZ / Normalized Luc. act., normalized to control: ABCA1 promoter, hormone receptor with or without its ligand; for Normalized Luc. act., normalized to control: relative to control; for mABCA1 promoter reporter activity: transcription factor +/- ligand, control = 1.00
Description: as §1, §2, §3

mNPY promoter = assay: NHR-promoter luciferase screen, mNPY promoter; assay type: cell-based, mouse; conditions: for Results of assays of transcription factor (+/- ligand) with mNPY: Table 6d, luciferase activity relative to control (control = 1.00); for Luc. act., normalized to lacZ / Normalized Luc. act., normalized to control: mNPY promoter, HR component with or without ligand; for Normalized Luc. act., normalized to control: relative to control
Description: as §1, §2, §3

hCAR promoter = assay: NHR-promoter luciferase screen, hCAR promoter; assay type: cell-based, human; conditions: for luciferase activity normalized to lacZ activity and to a control, hCAR: hCAR promoter-luciferase, CV-1 cells, NHR +/- ligand, control = 1.00; for Luc. act., normalized to lacZ / Normalized Luc. act., normalized to control: hCAR promoter, HR/ligand component
Description: as §1, §2, §3

| Molecule | Luc. act., normalized to lacZ (mLeptin promoter) | Normalized Luc. act., normalized to control (mLeptin promoter) | Results of assays of transcription factor (+/- ligand) with mLeptin (mLeptin promoter) | Luc. act., normalized to lacZ (mAdiponectin promoter) | Normalized Luc. act., normalized to control (mAdiponectin promoter) | mAdiponectin promoter reporter activity (mAdiponectin promoter) | Normalized Luc. act., normalized to control (mUCP3 promoter) | Luc. act., normalized to lacZ (mUCP3 promoter) | mUCP3 promoter reporter activity (mUCP3 promoter) | Luc. act., normalized to lacZ (mABCA1 promoter) | Normalized Luc. act., normalized to control (mABCA1 promoter) | mABCA1 promoter reporter activity (mABCA1 promoter) | Results of assays of transcription factor (+/- ligand) with mNPY (mNPY promoter) | Luc. act., normalized to lacZ (mNPY promoter) | Normalized Luc. act., normalized to control (mNPY promoter) | luciferase activity normalized to lacZ activity and to a control, hCAR (hCAR promoter) | Luc. act., normalized to lacZ (hCAR promoter) | Normalized Luc. act., normalized to control (hCAR promoter) |
| --- | --- | --- | --- | --- | --- | --- | --- | --- | --- | --- | --- | --- | --- | --- | --- | --- | --- | --- |
| RORg: RAR-related Orphan Receptor γ (NR1F3), cDNA driver (protein, UniProt P51449 1-518, looked up) Nuclear receptor ROR-gamma: MDRAPQRQHRASRELLAAKKTHTSQIEVIPCKICGDKSSGIHYGVITCEGCKGFFRRSQRCNAAYSCTRQQNCPIDRTSRNRCQHCRLQKCLALGMSRDAVKFGRMSKKQRDSLHAEVQKQLQQRQQQQQEPVVKTPPAGAQGADTLTYTLGLPDGQLPLGSSPDLPEASACPPGLLKASGSGPSYSNNLAKAGLNGASCHLEYSPERGKAEGRESFYSTGSQLTPDRCGLRFEEHRHPGLGELGQGPDSYGSPSFRSTPEAPYASLTEIEHLVQSVCKSYRETCQLRLEDLLRQRSNIFSREEVTGYQRKSMWEMWERCAHHLTEAIQYVVEFAKRLSGFMELCQNDQIVLLKAGAMEVVLVRMCRAYNADNRTVFFEGKYGGMELFRALGCSELISSIFDFSHSLSALHFSEDEIALYTALVLINAHRPGLQEKRKVEQLQYNLELAFHHHLCKTHRQSILAKLPPKGKLRSLCSQHVERLQIFQHLHPIVVQAAFPPLYKELFSTETESPVGLSK | 2.6 | 0.9 | 0.87 | 133.3 | 2.1 | 2.12 | 2.4 | 1.6 | 2.38 | 29.4 | 5.2 | 5.23 | 0.91 | 76.5 | 0.9 | 1.22 | 38.6 | 1.2 |
| RVRa: Rev-Erb α (NR1D1), cDNA driver (protein, UniProt P20393 1-614, looked up) Nuclear receptor subfamily 1 …: MTTLDSNNNTGGVITYIGSSGSSPSRTSPESLYSDNSNGSFQSLTQGCPTYFPPSPTGSLTQDPARSFGSIPPSLSDDGSPSSSSSSSSSSSSFYNGSPPGSLQVAMEDSSRVSPSKSTSNITKLNGMVLLCKVCGDVASGFHYGVHACEGCKGFFRRSIQQNIQYKRCLKNENCSIVRINRNRCQQCRFKKCLSVGMSRDAVRFGRIPKREKQRMLAEMQSAMNLANNQLSSQCPLETSPTQHPTPGPMGPSPPPAPVPSPLVGFSQFPQQLTPPRSPSPEPTVEDVISQVARAHREIFTYAHDKLGSSPGNFNANHASGSPPATTPHRWENQGCPPAPNDNNTLAAQRHNEALNGLRQAPSSYPPTWPPGPAHHSCHQSNSNGHRLCPTHVYAAPEGKAPANSPRQGNSKNVLLACPMNMYPHGRSGRTVQEIWEDFSMSFTPAVREVVEFAKHIPGFRDLSQHDQVTLLKAGTFEVLMVRFASLFNVKDQTVMFLSRTTYSLQELGAMGMGDLLSAMFDFSEKLNSLALTEEELGLFTAVVLVSADRSGMENSASVEQLQETLLRALRALVLKNRPLETSRFTKLLLKLPDLRTLNNMHSEKLLSFRVDAQ | 2.5 | 0.9 | 0.86 | 55.2 | 0.9 | 0.88 | 1.2 | 0.8 | 1.24 | 46.3 | 8.3 | 8.25 | 1.09 | 91.9 | 1.1 | 1.05 | 33.3 | 1.1 |

From patent publication US20110263454A1, “Methods of Identifying Functional Characteristics of Promoters, Transcription Modifying Proteins and Transcription Modulating Agents” (Salk Institute for Biological Studies, priority 2008, published 2011)
